B1: TPR t1 (parent)
chain: GACCAAUCUGCCCUCAGAGCUCGAGAACAUCUUCGGAUGCAGAGGAGGCAGGCUUCGGUGGCGCGAUAGCGCCAACGUCCUCAACCUCCAAUGCAUCCCACCACAUGAUGAUGCCUGAAGAGCCUUGGUUUUUUG

Variants of: B1
Experiment: polymerase ribozyme fitness, log enrichment relative to wild type (log ratio); higher = more active; in vitro selection for triplet polymerase activity
Outline: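 Input and output libraries were sequenced on Illumina after a single in vitro selection round, run in triplicate on PCR-built, transcribed mutant libraries of each subunit of a heterodimeric triplet polymerase ribozyme. Selection annealed libraries to a biotinylated primer, the partner subunit and triplets, incubated them frozen at −7 °C, then gel-excised extended constructs for streptavidin-bead capture and RT-PCR. Genotypes with ≥10 input reads and ≥1 read per output were kept. Fitness is the logarithm, taken in base 2, of genotype enrichment divided by wild-type enrichment, using inverse-variance-weighted replicate averages.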

Row | Variant | polymerase ribozyme fitness (log ratio)
1 | C11U A84G C89A | -4
2 | C11U G113C | -2.55
3 | C11G G52A U54A C98A | -5.44
4 | C11G G117A | -0.219
5 | C11G A16U G93U A100C C123U | -3.13
6 | C11G G19A G47C G48A | -3.86
7 | C11G A66C | -0.842
8 | C11U C40G G61C A119U | -2.64
9 | C11G G51C | -4.46
10 | C12A C49G G63C C86G U131G | -3.12
11 | C11G G44C A66G A83G C114A U133A | -5.39
12 | C11U U32A A68C G69U C98A C99A U106A C115G G117C U132A | -6.55
13 | C11G U129G | -1.77
14 | C11U G51U | -3.04
15 | C11G C97A C102U | -4.77
16 | C11U G71A C98U A105U G110U G122U C124A | -7.92
17 | C12A C86U A111U | -3.42
18 | C11U C62G C89U A121C C124G U125A | -0.483
19 | C11U C22U | -4.2
20 | C11U C22A | -4.84
21 | C11U A27U G120A U132A | -1.47
22 | C11U C15A A16C U33G C49G G60A G65A C79A A90C U109A | -8.01
23 | C11G C56G C79U | -0.259
24 | C11G G19A C56U C73U | -2.04

Row | Variant | polymerase ribozyme fitness (log ratio)
25 | C11G G61C U78C U126A | -4.7
26 | C11G C56G U106G | -0.581
27 | C11U C34U | -3.97
28 | C11G U21A G77A | -0.311
29 | C11U G47A U87A G93U G113C | -4.49
30 | C11U C64U U78C | -0.654
31 | C11G A50C C72A U92G C114A G122C U131C | -3.27
32 | C11G U32A C34U C115G | -8.31
33 | C12A C76A C82A U92G | -4.72
34 | C11U G36U G117A C124U | -5.7
35 | C11G C13G A50C G110C | -5.28
36 | C12A C72U A100C U133G | -1.76
37 | C11U A37U U55C | -1.28
38 | C12A C64A | -5.04
39 | C11U A18U C20U C56U C101A | -3.06
40 | C11U G44C G61U C104U U116C | -2.32
41 | C12A A84U A95C G135C | -1.09
42 | C11G G23A C76U | -6.14
43 | C12A C70A C85G U116C | -4.83
44 | C12A C64U C72U | -1.01
45 | C11G G61C U78A U126A | -0.897
46 | C11A U14A A18U U55C | -4.98
47 | C12A A37C A50G C53A | -0.87
48 | C11G G61A C64U G120U | -0.77

Row | Variant | polymerase ribozyme fitness (log ratio)
49 | C11U C49A | -1.28
50 | C11G C73A | 0.279
51 | C11A G77A C82G | -1.88
52 | C12A C15U U21A G39A | -1.06
53 | C11U G61U C76U A111C | -5.8
54 | C11U U54A G60A G110C A121U | -4.92
55 | C11U A43U | -1.62
56 | C11G U109G | -4.69
57 | C11G C12G G48U G58U G60U C85A U106G | -4.78
58 | C11G A50C | -0.589
59 | C11G G47U G63A C79A | -3.91
60 | C11U C20G G117U | -4.42
61 | C11G A66G C114U C124G | -3.83
62 | C11U G39C | -1.05
63 | C11U A43G C72G | -2.54
64 | C11G C88G G93C | -3.14
65 | C12A C28U G63C | -2.37
66 | C11U C97U | -1.74
67 | C11U U106A G110C C123U | -2.46
68 | C11G C22U C34A A37U C88A U96G C115U | -7.3
69 | C11G C12A G51A C80A U116G | -5.92
70 | C12A C20A G61U G120A | -1.21
71 | C11G C64U | -0.506
72 | C11A U33G G69U U106A | -2.62

Row | Variant | polymerase ribozyme fitness (log ratio)
73 | C11G C12A G69C C104A | -2.8
74 | C11U C114U | -1.57
75 | C11U C114G | -3.54
76 | C12A C70A G127U | -2.31
77 | C11U G42C A75G U112C A121U G127A | -0.694
78 | C11U C13U C53U G63U U92G C104U U112A | -4.22
79 | C11U A16C G63A | -3.2
80 | C11U A37U G45A | -1.81
81 | C11G C82G G117C | -2.58
82 | C11G A24G C40U A90G U131A | -2.57
83 | C11U C13U A50C A103C U125A | -5.37
84 | C11U A26U G52C | -3.53
85 | C11G U59A A68U | -7.59
86 | C11G G42C A95U | -1.3
87 | C11G G48U G61A C73A A90G | -2.19
88 | C11U A84G C89U G93U | -2.61
89 | C11U C13U A18G C56U U109A | -4.43
90 | C11U C70U C101A G128C | -4.09
91 | C12A C15A C72U C79A C88A | -5.1
92 | C11U C56G C88U G120C G122U G127A | -0.748
93 | C11U C12U C15U C53A C80U C88U C104U A111U A118G | -6.72
94 | C11G U130A | 0.0419
95 | C12A C76U U106A | -1.29
96 | C11G G23U G39C G45C G47C C89U C99G C115U | -7.14

Row | Variant | polymerase ribozyme fitness (log ratio)
97 | C11U C20A G42C C102U U112C C124G | -5.12
98 | C11G C76A G77A G93U | -1.15
99 | C11G C34U C49A C123U | -2.86
100 | C12A A41U G45A C64A U87C A100C U116C | -6.47
101 | C11G A43G C85A C89G C94U | -2.52
102 | C11U C70A U129A | -3.59
103 | C11G C34U C86G A119U | -5.27
104 | C11U U32G U38G U54C C99G G120C | -6.93
105 | C11G C28U C56A G60A U78G | -4.9
106 | C11U A74U U109G U116A | -6.7
107 | C11U C15A C56U | -1.47
108 | C11U C62G U112A C123A G127U | -0.368
109 | C11G C70U | 0.101
110 | C11U G58C G120U | 0.332
111 | C11U C94A | -2.35
112 | C11U G42C G63C U130G | -3.61
113 | C11U A50U C70U G113A | -2.63
114 | C11G C73A C82U | -0.161
115 | C11U G48A U59A G69U C88G G135U | -3.32
116 | C11U C34U G71A A121C U129C | -6.13
117 | C11G G42C C49U G117C C124G | -4.14
118 | C12A A74C G93A C124U U132A | -1.34
119 | C11G C53U C80U C88A U112C | 0.738
120 | C11U C115U | -1.61

Row | Variant | polymerase ribozyme fitness (log ratio)
121 | C11U C28G A37G G120U U130A | -2.33
122 | C11U C12G C15U C28G U38A C56U G69C G120A | -7.02
123 | C11U U55C A121G | 1.39
124 | C12A A26C C56G G63U C89G G107A U116C | -7.06
125 | C11U G60A G61U U78C C86G | -4.45
126 | C11G C40U U87G C115U | -0.239
127 | C11U G69U A121G | 2.01
128 | C11U C15G A27G C94G U109C G110A A119U G120A | -7.62
129 | C11U C13U C22G C82A | -4.12
130 | C11G G39C A74U C115U | -2.3
131 | C11G A68U | -4.49
132 | C12A A111G | 0.3
133 | C12A C56A C80U A84U C89U A119G C123A | -0.802
134 | C11U A50G | -0.405
135 | C11G G113A | -0.119
136 | C12A C64G C98G A103U A119G | -6.93
137 | C11G C56U U87C | 0.175
138 | C12A C13A C72U U92C G117A A121U C123U | -1.56
139 | C11U A50U C88U | -1.26
140 | C12A C62A C72U C98U U126C | -2.97
141 | C11U A83C | -0.558
142 | C11G U134A | 0.54
143 | C11U C40G C49A U55G G61A | -1.51
144 | C11G C34U A84C | -3.61

Row | Variant | polymerase ribozyme fitness (log ratio)
145 | C12A C72U A100U | -2.13
146 | C11U G61A C88G C94G U130C | -4.74
147 | C11U C20G U96G C123U | -2.94
148 | C11G A16U G58C A83C C89U U131A | -3.15
149 | C11U C12A A41C C56G G69U | -2.94
150 | C11A U14G G63A G71A A83G A91C C114U | -5.74
151 | C11U G47A G71C C86U | -0.929
152 | C11G G42A U59A A91C C94A A95G A118G | -4.19
153 | C11G U55C C62G A83U A95U | -1.47
154 | C11G G71A U106G | -2.48
155 | C12A C22U C56U A83C U125A | -4.56
156 | C12A A121U | 1.74
157 | C12A A46U G47C A68G U78C C124G | -4.93
158 | C11U C72A U78A C97A | -5.56
159 | C11U U116G G122A C124U | 0.369
160 | C11A U132A | -2.12
161 | C11G G71A C89U G110U | -3.53
162 | C11U C80U G113C | -3.93
163 | C11U C56A A91U U96C | -3.51
164 | C11G U33G A95G C101U G120C | -5.25
165 | C12A A29U C56U | -3.33
166 | C11G G52A C99U U106G | -4.99
167 | C11G C40U G47C C56A U92A | -6.34
